Target: 92BR020 SOSIP gp140 trimer (stabilized pre-fusion HIV-1 envelope glycoprotein, SOSIP v.7) (HIV-1 subtype B strain 92BR020)
Assay: negative-stain electron microscopy; SOSIP proteins diluted in Tris-buffered saline to ~0.02 mg/mL, adsorbed onto carbon-coated copper grids, stained with 2% uranyl formate; 2D classification compared with published well-folded SOSIP trimers

Work on “92BR020 SOSIP gp140 trimer (stabilized pre-fusion HIV-1 envelope glycoprotein, SOSIP v.7) (natural protein)” yielded a stoichiometry N of 3.
